These results are taken from patent US20240010722A1.

“And” between values parts separate entries of the source, which are not always exact repeats. Equal values may be shown once.

The test deals with Insulin. The test can be described thus: polyreactivity ELISA on insulin coat, 100 nM. For orientation: In an ELISA, binding on a coated surface is turned into a signal by an enzyme label.
Sequence of Insulin (P01308 25-54, chain 1 of 2): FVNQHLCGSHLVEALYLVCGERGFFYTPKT
Sequence of Insulin (P01308 90-110, chain 2 of 2): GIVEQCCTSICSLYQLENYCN

B1: MIAB198 (antibody, V domains shown)
VH: EVQLLESGGGLVQPGGSLRLSCAASGFTFSDFWMHWVRQAPGKGLEWISYISGDSGYTNYADSVKGRFTISRDNSKNTLYLQMNSLRAEDTAVYYCARDRPYYYIMDVWGKGTTVTVSS
VL: DIQMTQSPSSLSASVGDRVTITCRASQSVSRSLAWYQQKPGKAPKLLIYAASSLQSGVPSRFSGSGSGTDFTLTISSLQPEDFATYYCQQYKSYPVTFGQGTKVEIK
As for B1, the Insulin polyreactivity score was 3.19 and 3.63.

B2: MIAB154 (antibody, V domains shown)
VH: EVQLLESGGGLVQPGGSLRLSCAASGFTFSDFWMHWVRQAPGKGLEWISYISGDSGYTNYADSVKGRFTISRDNSKNTLYLQMNSLRAEDTAVYYCARDRPYYYYMDVWGKGTTVTVSS
VL: DIQMTQSPSSLSASVGDRVTITCRASQSVSRYLNWYQQKPGKAPKLLIYAASSLQSGVPSRFSGSGSGTDFTLTISSLQPEDFATYYCQQYKSYPVTFGQGTKVEIK
Turning to B2, the Insulin polyreactivity score came out at 61.9.

B3: MIAB128 (antibody, V domains shown)
VH: EVQLLESGGGLVQPGGSLRLSCAASGFTFSDFWMHWVRQAPGKGLEWISYISGDSGYTNYADSVKGRFTISRDNSKNTLYLQMNSLRAEDTAVYYCARDRPNYYYMDVWGKGTTVTVSS
VL: DIQMTQSPSSLSASVGDRVTITCRASQSVSRSLAWYQQKPGKAPKLLIYAASSLQSGVPSRFSGSGSGTDFTLTISSLQPEDFATYYCQQYKSYPVTFGQGTKVEIK
B3 had an Insulin polyreactivity score of 2.62.

B4: MIAB163 (antibody, V domains shown)
VH: EVQLLESGGGLVQPGGSLRLSCAASGFTFSDFWMHWVRQAPGKGLEWISYISGDSGYTNYADSVKGRFTISRDNSKNTLYLQMNSLRAEDTAVYYCARDRPYYYYMDVWGKGTTVTVSS
VL: DIQMTQSPSSLSASVGDRVTITCRASQSVSRSLDWYQQKPGKAPKLLIYAASSLQSGVPSRFSGSGSGTDFTLTISSLQPEDFATYYCQQYKSYPVTFGQGTKVEIK
For B4, the Insulin polyreactivity score came to 18.5.

B5: MIAB152 (antibody, V domains shown)
VH: EVQLLESGGGLVQPGGSLRLSCAASGFTFSDFWMHWVRQAPGKGLEWISYISGDSGYTNYADSVKGRFTISRDNSKNTLYLQMNSLRAEDTAVYYCARDRPYYYYMDVWGKGTTVTVSS
VL: DIQMTQSPSSLSASVGDRVTITCRASQSVSSYLAWYQQKPGKAPKLLIYAASSLQSGVPSRFSGSGSGTDFTLTISSLQPEDFATYYCQQYKSYPVTFGQGTKVEIK
B5 had an Insulin polyreactivity score of 2.83.

B6: MIAB167 (antibody, V domains shown)
VH: EVQLLESGGGLVQPGGSLRLSCAASGFTFSDFWMHWVRQAPGKGLEWISYISGDSGYTNYADSVKGRFTISRDNSKNTLYLQMNSLRAEDTAVYYCARDRPYYYYMDVWGKGTTVTVSS
VL: DIQMTQSPSSLSASVGDRVTITCRASQSVSRSLKWYQQKPGKAPKLLIYAASSLQSGVPSRFSGSGSGTDFTLTISSLQPEDFATYYCQQYKSYPVTFGQGTKVEIK
As for B6, the Insulin polyreactivity score came out at 29.6.

B7: MIAB129 (antibody, V domains shown)
VH: EVQLLESGGGLVQPGGSLRLSCAASGFTFSDFWMHWVRQAPGKGLEWISYISGDSGYTNYADSVKGRFTISRDNSKNTLYLQMNSLRAEDTAVYYCARDRPGYYYMDVWGKGTTVTVSS
VL: DIQMTQSPSSLSASVGDRVTITCRASQSVSRSLAWYQQKPGKAPKLLIYAASSLQSGVPSRFSGSGSGTDFTLTISSLQPEDFATYYCQQYKSYPVTFGQGTKVEIK
With B7, the Insulin polyreactivity score worked out at 2.43.

B8: MIAB156 (antibody, V domains shown)
VH: EVQLLESGGGLVQPGGSLRLSCAASGFTFSDFWMHWVRQAPGKGLEWISYISGDSGYTNYADSVKGRFTISRDNSKNTLYLQMNSLRAEDTAVYYCARDRPYYYYMDVWGKGTTVTVSS
VL: DIQMTQSPSSLSASVGDRVTITCRASQSISRYLNWYQQKPGKAPKLLIYAASSLQSGVPSRFSGSGSGTDFTLTISSLQPEDFATYYCQQYKSYPVTFGQGTKVEIK
B8 registered an Insulin polyreactivity score of 45.2.

B9: MIAB159 (antibody, V domains shown)
VH: EVQLLESGGGLVQPGGSLRLSCAASGFTFSDFWMHWVRQAPGKGLEWISYISGESGYTNYADSVKGRFTISRDNSKNTLYLQMNSLRAEDTAVYYCARDRPYYYYMDVWGKGTTVTVSS
VL: DIQMTQSPSSLSASVGDRVTITCRASQSVSRSLAWYQQKPGKAPKLLIYAASSLQSGVPSRFSGSGSGTDFTLTISSLQPEDFATYYCQQYKSYPVTFGQGTKVEIK
Molecule B9 had an Insulin polyreactivity score of 4.66.

B10: MIAB164 (antibody, V domains shown)
VH: EVQLLESGGGLVQPGGSLRLSCAASGFTFSDFWMHWVRQAPGKGLEWISYISGDSGYTNYADSVKGRFTISRDNSKNTLYLQMNSLRAEDTAVYYCARDRPYYYYMDVWGKGTTVTVSS
VL: DIQMTQSPSSLSASVGDRVTITCRASQSVSRSLTWYQQKPGKAPKLLIYAASSLQSGVPSRFSGSGSGTDFTLTISSLQPEDFATYYCQQYKSYPVTFGQGTKVEIK
The molecule B10 had an Insulin polyreactivity score of 7.07.

B11: MIAB131 (antibody, V domains shown)
VH: EVQLLESGGGLVQPGGSLRLSCAASGFTFSDFWMHWVRQAPGKGLEWISYISGDSGYTNYADSVKGRFTISRDNSKNTLYLQMNSLRAEDTAVYYCARDRPYYYGMDVWGKGTTVTVSS
VL: DIQMTQSPSSLSASVGDRVTITCRASQSVSRSLAWYQQKPGKAPKLLIYAASSLQSGVPSRFSGSGSGTDFTLTISSLQPEDFATYYCQQYKSYPVTFGQGTKVEIK
In turn, B11 showed an Insulin polyreactivity score of 8.

B12: MIAB150 (antibody, V domains shown)
VH: EVQLLESGGGLVQPGGSLRLSCAASGFTFSDFWMHWVRQAPGKGLEWISYISGDSGYTNYADSVKGRFTISRDNSKNTLYLQMNSLRAEDTAVYYCARDRPYYYYMDVWGKGTTVTVSS
VL: DIQMTQSPSSLSASVGDRVTITCRASQSISRYLAWYQQKPGKAPKLLIYAASSLQSGVPSRFSGSGSGTDFTLTISSLQPEDFATYYCQQYKSYPVTFGQGTKVEIK
With B12, the Insulin polyreactivity score worked out at 3.74.

B13: MIAB161 (antibody, V domains shown)
VH: EVQLLESGGGLVQPGGSLRLSCAASGFTFSDFWMHWVRQAPGKGLEWISYISGDSGYTNYADSVKGRFTISRDQSKNTLYLQMNSLRAEDTAVYYCARDRPYYYYMDVWGKGTTVTVSS
VL: DIQMTQSPSSLSASVGDRVTITCRASQSVSRSLAWYQQKPGKAPKLLIYAASSLQSGVPSRFSGSGSGTDFTLTISSLQPEDFATYYCQQYKSYPVTFGQGTKVEIK
As to B13, the Insulin polyreactivity score was determined as 5.

B14: MIAB166 (antibody, V domains shown)
VH: EVQLLESGGGLVQPGGSLRLSCAASGFTFSDFWMHWVRQAPGKGLEWISYISGDSGYTNYADSVKGRFTISRDNSKNTLYLQMNSLRAEDTAVYYCARDRPYYYYMDVWGKGTTVTVSS
VL: DIQMTQSPSSLSASVGDRVTITCRASQSVSRSLEWYQQKPGKAPKLLIYAASSLQSGVPSRFSGSGSGTDFTLTISSLQPEDFATYYCQQYKSYPVTFGQGTKVEIK
Consider B14, for which the Insulin polyreactivity score was found to be 7.89.

B15: MIAB155 (antibody, V domains shown)
VH: EVQLLESGGGLVQPGGSLRLSCAASGFTFSDFWMHWVRQAPGKGLEWISYISGDSGYTNYADSVKGRFTISRDNSKNTLYLQMNSLRAEDTAVYYCARDRPYYYYMDVWGKGTTVTVSS
VL: DIQMTQSPSSLSASVGDRVTITCRASQSISSSLNWYQQKPGKAPKLLIYAASSLQSGVPSRFSGSGSGTDFTLTISSLQPEDFATYYCQQYKSYPVTFGQGTKVEIK
Turning to B15, the Insulin polyreactivity score was found to be 1.99.

B16: MIAB130 (antibody, V domains shown)
VH: EVQLLESGGGLVQPGGSLRLSCAASGFTFSDFWMHWVRQAPGKGLEWISYISGDSGYTNYADSVKGRFTISRDNSKNTLYLQMNSLRAEDTAVYYCARDRPYYYQMDVWGKGTTVTVSS
VL: DIQMTQSPSSLSASVGDRVTITCRASQSVSRSLAWYQQKPGKAPKLLIYAASSLQSGVPSRFSGSGSGTDFTLTISSLQPEDFATYYCQQYKSYPVTFGQGTKVEIK
With B16, the Insulin polyreactivity score was 3.26.

B17: MIAB165 (antibody, V domains shown)
VH: EVQLLESGGGLVQPGGSLRLSCAASGFTFSDFWMHWVRQAPGKGLEWISYISGDSGYTNYADSVKGRFTISRDNSKNTLYLQMNSLRAEDTAVYYCARDRPYYYYMDVWGKGTTVTVSS
VL: DIQMTQSPSSLSASVGDRVTITCRASQSVSRSLSWYQQKPGKAPKLLIYAASSLQSGVPSRFSGSGSGTDFTLTISSLQPEDFATYYCQQYKSYPVTFGQGTKVEIK
In turn, B17 yielded an Insulin polyreactivity score of 9.53.

B18: MIAB162 (antibody, V domains shown)
VH: EVQLLESGGGLVQPGGSLRLSCAASGFTFSDFWMHWVRQAPGKGLEWISYISGDSGYTNYADSVKGRFTISRDNSKNTLYLQMNSLRAEDTAVYYCARDRPYYYYMDVWGKGTTVTVSS
VL: DIQMTQSPSSLSASVGDRVTITCRASQSVSRSLGWYQQKPGKAPKLLIYAASSLQSGVPSRFSGSGSGTDFTLTISSLQPEDFATYYCQQYKSYPVTFGQGTKVEIK
As for B18, the Insulin polyreactivity score was 5.31.

B19: MIAB158 (antibody, V domains shown)
VH: EVQLLESGGGLVQPGGSLRLSCAASGFTFSDFWMHWVRQAPGKGLEWISYISGDSGYTNYADSVKGRFTISRDNSKNTLYLQMNSLRAEDTAVYYCARDRPYYYYMDVWGKGTTVTVSS
VL: DIQMTQSPSSLSASVGDRVTITCRASQSVSSYLNWYQQKPGKAPKLLIYAASSLQSGVPSRFSGSGSGTDFTLTISSLQPEDFATYYCQQYKSYPVTFGQGTKVEIK
B19 returned an Insulin polyreactivity score of 2.67.

B20: MIAB157 (antibody, V domains shown)
VH: EVQLLESGGGLVQPGGSLRLSCAASGFTFSDFWMHWVRQAPGKGLEWISYISGDSGYTNYADSVKGRFTISRDNSKNTLYLQMNSLRAEDTAVYYCARDRPYYYYMDVWGKGTTVTVSS
VL: DIQMTQSPSSLSASVGDRVTITCRASQSISSYLAWYQQKPGKAPKLLIYAASSLQSGVPSRFSGSGSGTDFTLTISSLQPEDFATYYCQQYKSYPVTFGQGTKVEIK
With B20, the Insulin polyreactivity score came out at 3.99.

B21: MIAB160 (antibody, V domains shown)
VH: EVQLLESGGGLVQPGGSLRLSCAASGFTFSDFWMHWVRQAPGKGLEWISYISGDSGYTQYADSVKGRFTISRDNSKNTLYLQMNSLRAEDTAVYYCARDRPYYYYMDVWGKGTTVTVSS
VL: DIQMTQSPSSLSASVGDRVTITCRASQSVSRSLAWYQQKPGKAPKLLIYAASSLQSGVPSRFSGSGSGTDFTLTISSLQPEDFATYYCQQYKSYPVTFGQGTKVEIK
In the case of B21, the Insulin polyreactivity score worked out at 17.8.
